In patent publication US20190382493A1 (CYTOMX THERAPEUTICS, published 2019):
Numbering of substitutions follows the chain as printed.

T1: human B7-1-Fc (R&D Systems) (human, UniProt P33681 35-242)
T1 construct: not shown: Fc part of the bought fusion protein; not described
T1 sequence (looked up): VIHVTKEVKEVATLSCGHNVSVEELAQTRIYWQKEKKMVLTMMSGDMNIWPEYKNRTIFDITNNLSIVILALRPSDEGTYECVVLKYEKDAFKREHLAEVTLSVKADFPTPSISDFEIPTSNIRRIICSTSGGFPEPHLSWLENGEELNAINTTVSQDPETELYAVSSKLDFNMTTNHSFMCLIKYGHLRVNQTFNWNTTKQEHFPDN

B1: anti-PDL1 antibody C5B10 (antibody, V domains shown)
VH: EVQLLESGGGLVQPGGSLRLSCAASGFTFSSYAMSWVRQAPGKGLEWVSSIWRNGIVTVYADSVKGRFTISRDNSKNTLYLQMNSLRAEDTAVYYCAKWSAGYDYWGQGTLVTVSS
VL: DIQMTQSPSSLSASVGDRVTITCRASQSISSYLNWYQQKPGKAPKLLIYYASTLQSGVPSRFSGSGSGTDFTLTISSLQPEDFATYYCQQDNGYPSTFGQGTKVEIKR
notes: Fully human IgG; also called PDL1 C5B10
B2: anti-PDL1 antibody C5E10 (antibody, V domains shown)
VH: B1 VH with A101K, Y103F
VL: B1 VL
notes: Fully human IgG
B3: anti-PDL1 antibody G12E10 (antibody, V domains shown)
VH: B1 VH with R53Y, N54Q, I56L, A101K, Y103F
VL: B1 VL
notes: Fully human IgG; also called PDL1 G12E10
B4: anti-PDL1 antibody G12B10 (antibody, V domains shown)
VH: B1 VH with R53Y, N54Q, I56L
VL: B1 VL
notes: Fully human IgG; also called PDL1 G12B10
B5: anti-PDL1 antibody G12H9 (antibody, V domains shown)
VH: B1 VH with R53Y, N54Q, I56L, G102A, Y103F
VL: B1 VL
notes: Fully human IgG; also called PDL1 G12H9
B6: PDL1 A05 Fab-phage (Fab, V domains shown)
VH: EVQLLESGGGLVQPGGSLRLSCAASGFTFSSYAMSWVRQAPGKGLEWVSSIWKQGIVTVYDSVKGRFTISRDNSKNTLYLQMNSLRAEDTAVYYCAKSSAGFDYWGQGTLVTV
VL: B1 VL
B7: PDL1 G12 Fab-phage (Fab, V domains shown)
VH: EVQLLESGGGLVQPGGSLRLSCAASGFTFSSYAMSWVRQAPGKGLEWVSSIWYQGLVTVYDSVKGRFTISRDNSKNTLYLQMNSLRAEDTAVYYCAKSSAGFDYWGQGTLVTVSS
VL: B1 VL
B8: PDL1 E11 Fab-phage (Fab, V domains shown)
VH: EVQLLESGGGLVQPGGSLRLSCAASGFTFSSYAMSWVRQAPGKGLEWVSDIWKQGFATADSVKGRFTISRDNSKNTLYLQMNSLRAEDTAVYYCAKSSAGFDYWGQGTLVTVSS
VL: B1 VL
B9: PDL1 H06 Fab-phage (Fab, V domains shown)
VH: B7 VH with Y53R, V57A, V59A
VL: B1 VL
B10: PDL1 G09 Fab-phage (Fab, V domains shown)
VH: B7 VH with S50E, W52V, Y53A, Q54T, L56I, V57L, V59S
VL: B1 VL
B11: PDL1 C05 Fab-phage (Fab, V domains shown)
VH: B7 VH with Y53R, Q54N, L56I
VL: B1 VL
B12: PDL1 D08 Fab-phage (Fab, V domains shown)
VH: B7 VH with Y53R, V57A, V59A
VL: B1 VL
B13: PDL1 C10 Fab-phage (Fab, V domains shown)
VH: B7 VH with S50D, Y53K, L56M
VL: B1 VL
B14: PDL1 D01 Fab-phage (Fab, V domains shown)
VH: B7 VH with Y53K, L56I
VL: B1 VL
B15: PDL1 G10 Fab-phage (Fab, V domains shown)
VH: B7 VH with W52G, Y53R, V57I
VL: B1 VL
B16: masking moiety PL14 (peptide)
peptide: YLPCHFVPIGACNNK
B17: masking moiety PL13 (peptide)
peptide: LCDLFKLREFPYCMG
B18: masking moiety PL05 (peptide)
peptide: FGPRCGEASTCVPYE
B19: masking moiety PL06 (peptide)
peptide: ILYCDSWGAGCLTRP
B20: masking moiety PL02 (peptide)
peptide: SCLMHPHYAHDYCYV
B21: masking moiety PL01 (peptide)
peptide: YCEVSELFVLPWCMG
B22: masking moiety PL07 (peptide)
peptide: GIALCPSHFCQLPQT
B23: masking moiety PL03 (peptide)
peptide: LCEVLMLLQHPWCMG
B24: masking moiety PL04 (peptide)
peptide: IACRHFMEQLPFCHH
B25: masking moiety PL08 (peptide)
peptide: DGPRCFVSGECSPIG
B26: masking moiety PL09 (peptide)
peptide: LCYKLDYDDRSYCHI
B27: masking moiety PL15 (peptide)
peptide: IFCHMGVVVPQCANY
B28: masking moiety PL10 (peptide)
peptide: PCHPHPYDARPYCNV
B29: masking moiety PL23 (peptide)
peptide: PCHPHPYDARPYCAV
notes: differs from PL10 by one alanine
B30: masking moiety PL19 (peptide)
peptide: PCHPHPADARPYCNV
notes: as for B29
B31: masking moiety PL21 (peptide)
peptide: PCHPHPYDAAPYCNV
notes: as for B29
B32: masking moiety PL20 (peptide)
peptide: PCHPHPYAARPYCNV
notes: as for B29
B33: masking moiety PL24 (peptide)
peptide: PCHAHPYDARPYCNV
notes: as for B29
B34: masking moiety PL25 (peptide)
peptide: PCHPHPYDARAYCNV
notes: as for B29
B35: masking moiety PL16 (peptide)
peptide: ACHPHPYDARPYCNV
notes: as for B29
B36: masking moiety PL18 (peptide)
peptide: PCHPHAYDARPYCNV
notes: as for B29
B37: masking moiety PL17 (peptide)
peptide: PCHPAPYDARPYCNV
notes: as for B29
B38: masking moiety PL22 (peptide)
peptide: PCHPHPYDARPACNV
notes: as for B29
B39: masking moiety PL11 (peptide)
peptide: PCYWHPFFAYRYCNT
B40: masking moiety PL12 (peptide)
peptide: VCYYMDWLGRNWCSS

target: T1, human B7-1-Fc (R&D Systems); assay: ELISA, antigen adsorbed
Method: (§1) Bound antibody was visualized with an anti-human IgG-HRP conjugate, Fab specific, (Sigma, St Louis, Mo.; Cat # A0293-1ML) and developed with the chromogenic substrate TMB.

Binder	binding result
B1	no binding
B2	no binding

target: T2, human CD28-Fc (R&D Systems) (human, UniProt P10747 19-152); assay: ELISA, antigen adsorbed
T2 construct: not shown: Fc part of the bought fusion protein; not described
Method: as §1

Binder	binding result
B1	no binding
B2	no binding

target: T3, human PDL1-Fc (R & D Systems) (human, UniProt Q9NZQ7 19-239); assay: ELISA, PDL1-Fc adsorbed, anti-human IgG (Fab specific)-HRP
T3 construct: Bought reagent; not shown: Fc part of the bought fusion protein; not described
T3 sequence (Q9NZQ7 19-239 limits assumed): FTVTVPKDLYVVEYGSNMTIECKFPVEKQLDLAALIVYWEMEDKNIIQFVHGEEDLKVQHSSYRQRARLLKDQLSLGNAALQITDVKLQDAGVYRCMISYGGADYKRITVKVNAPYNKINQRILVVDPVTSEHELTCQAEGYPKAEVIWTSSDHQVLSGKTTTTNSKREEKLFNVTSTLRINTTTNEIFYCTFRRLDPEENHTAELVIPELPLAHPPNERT
Method: Bound antibody was visualized with an anti-human IgG-HRP conjugate, Fab specific, (Sigma, St Louis, Mo.; Cat # A0293-1ML) and developed with the chromogenic substrate TMB. […] Table 5 provides the SEQ ID NOs for the nucleic acid sequences and amino acids sequences of the respective variable heavy chains.
as §1

Binder	binding result
B1	binds
B2	binds
B3	binds
B4	binds
B5	binds

target: T1, human B7-1-Fc (R&D Systems); assay: Fab-phage ELISA, antigen adsorbed
Source text: Forty seven (47) individual isolates were chosen from the final pool. […] Briefly, the antigens were adsorbed to the wells of a 96-well ELISA plate, each ligand on a separate plate. Phage were applied to correlative wells on each plate and allowed to bind. Bound phage were visualized with an anti-M13-HRP conjugate and developed with the chromogenic substrate TMB. Based on the results of the ELISA and DNA sequence, 6 unique clones with matured heavy variable CDR3 domains and 10 heavy variable CDR2 domains were chosen for further study. […] Table 4 lists the heavy variable domains encoded by the clones and SEQ ID NOs for the nucleic acid sequences and amino acid sequences of their respective heavy chains.

Binder	binding result
B6	no binding
B7	no binding
B8	no binding
B9	no binding
B10	no binding
B11	no binding
B12	no binding
B13	no binding
B14	no binding
B15	no binding

target: T4, anti-PDL1 antibody C5H9v2; assay: binding of antibody to peptide-displaying clones
T4 construct: IgG; also called anti-PDL1 parental antibody C5H9v2

Binder	binding result
B16	binds
B17	binds
B18	binds
B19	binds
B20	binds
B21	binds
B22	binds
B23	binds
B24	binds
B25	binds
B26	binds
B27	binds
B28	binds
B29	binds
B30	binds
B31	binds
B32	binds
B33	binds
B34	binds
B35	binds
B36	binds
B37	binds
B38	binds
B39	binds
B40	binds

target: Fab of anti-PDL1 antibody C5H9v2; assay: binding of Fab to peptide-displaying clones

Binder	binding result
B16	binds
B17	binds
B18	binds
B19	binds
B20	binds
B21	binds
B22	binds
B23	binds
B24	binds
B25	binds
B26	binds
B27	binds
B28	binds
B29	binds
B30	binds
B31	binds
B32	binds
B33	binds
B34	binds
B35	binds
B36	binds
B37	binds
B38	binds
B39	binds
B40	binds
